Source: publication PMC4725879

Key:
[1] = tested on: LacI-Gly60+3 (Escherichia coli); experiment: EMSA; conditions: 5 mM Mg2+; EMSA: 20 mM Tris-HCl pH 8.0, 200 mM NaCl, 0.5 mM EDTA, 1 mM DTT, 5 mM MgCl2, 5% glycerol, 0.1 nM DNA, 22 C, 60 min; nicking assays at 37 C
[2] = tested on: LacI (lac repressor), wild type (Escherichia coli); experiment: EMSA; conditions: no IPTG; 5 mM Mg2+; EMSA: 20 mM Tris-HCl pH 8.0, 200 mM NaCl, 0.5 mM EDTA, 1 mM DTT, 5 mM MgCl2, 5% glycerol, 0.1 nM DNA, 22 C, 60 min; nicking assays at 37 C

## lac O2 fragment
[1]
  Ka: 6.2e+08 M⁻¹

## lac O1 fragment
[2]
  Ka: 1.2e+10 M⁻¹
[1]
  Ka: 1e+09 M⁻¹

## lac Os fragment
[1]
  Ka: 2.4e+09 M⁻¹
